Measured values reported in article doi:10.1101/2023.12.01.569544.

Target: HIV-1 capsid A14C/E45C/W184A/M185A (HIV-CA) (HIV-1)
Assay: SEC

Substance: HIV-1 capsid A14C/E45C/W184A/M185A (HIV-CA) (natural protein)
- stoichiometry N: 6
